Test system: Escherichia coli TOP10
Test: shrunken log2 fold change of peptide-encoding DNA abundance (4.5 h post-induction vs induction); higher = less antimicrobial activity (less host growth inhibition)
Conditions: time post-induction: 4.5 h; library: site-saturation at positions 5, 18, 19, 20
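Further: peptides expressed intracellularly from a pBAD plasmid library in pooled LB shake-flask culture, induced with 0.3% L-arabinose, DNA abundance read by NGS, three biological replicates, DESeq2 with apeglm shrinkage.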

Sequence	shrunken log2 fold change
RRIRYRPPRLPRPRPRPREMPRP	-0.126
RRIRSRPPRLPRPRPRPVLHPRP	-0.201
RRIRSRPPRLPRPRPRPYPWPRP	-0.591
RRIRPRPPRLPRPRPRPADAPRP	0.29
RRIRSRPPRLPRPRPRPSPAPRP	0.242
RRIRERPPRLPRPRPRPRNYPRP	-0.491
RRIRVRPPRLPRPRPRPIWAPRP	0.256
RRIRDRPPRLPRPRPRPSCWPRP	0.585
RRIRTRPPRLPRPRPRPTNAPRP	0.209
RRIRNRPPRLPRPRPRPRVCPRP	0.205
RRIRLRPPRLPRPRPRPVGLPRP	0.144
RRIRRRPPRLPRPRPRPSHVPRP	0.151
RRIRQRPPRLPRPRPRPIALPRP	-0.213
RRIRERPPRLPRPRPRPTISPRP	-0.163
RRIRWRPPRLPRPRPRPHMPPRP	-0.768
RRIRERPPRLPRPRPRPCGQPRP	-0.0982
RRIRKRPPRLPRPRPRPFDNPRP	0.057
RRIRPRPPRLPRPRPRPFYAPRP	0.02
RRIRIRPPRLPRPRPRPWSYPRP	-0.427
RRIRLRPPRLPRPRPRPFHLPRP	-0.177
RRIRVRPPRLPRPRPRPLQSPRP	0.12
RRIRARPPRLPRPRPRPFYNPRP	-0.44
RRIRNRPPRLPRPRPRPWRKPRP	-0.0392
RRIRTRPPRLPRPRPRPCKLPRP	-0.858
RRIRDRPPRLPRPRPRPYTDPRP	0.0446

Sequence	shrunken log2 fold change
RRIRERPPRLPRPRPRPFKSPRP	-0.0568
RRIRLRPPRLPRPRPRPMQVPRP	-0.0149
RRIRFRPPRLPRPRPRPDMSPRP	-0.0802
RRIRGRPPRLPRPRPRPSLDPRP	0.607
RRIRERPPRLPRPRPRPYNEPRP	-0.178
RRIRIRPPRLPRPRPRPAYPPRP	-0.829
RRIRDRPPRLPRPRPRPSNQPRP	-0.315
RRIRHRPPRLPRPRPRPENLPRP	-0.00992
RRIRSRPPRLPRPRPRPEQQPRP	0.0303
RRIRGRPPRLPRPRPRPKRGPRP	0.919
RRIRVRPPRLPRPRPRPNPVPRP	-0.242
RRIRDRPPRLPRPRPRPRLTPRP	0.41
RRIRVRPPRLPRPRPRPRNDPRP	-0.00857
RRIRIRPPRLPRPRPRPHIFPRP	-0.311
RRIRVRPPRLPRPRPRPNWFPRP	0.0817
RRIRQRPPRLPRPRPRPAREPRP	-0.0167
RRIRVRPPRLPRPRPRPASLPRP	-0.372
RRIRKRPPRLPRPRPRPVSMPRP	0.224
RRIRCRPPRLPRPRPRPCSEPRP	-0.495
RRIRWRPPRLPRPRPRPCEVPRP	-0.00149
RRIRKRPPRLPRPRPRPILSPRP	0.00626
RRIRVRPPRLPRPRPRPTERPRP	0.302
RRIRHRPPRLPRPRPRPRMVPRP	-0.0236
RRIRERPPRLPRPRPRPLTAPRP	-0.286
RRIRMRPPRLPRPRPRPWVDPRP	-0.034

Sequence	shrunken log2 fold change
RRIRLRPPRLPRPRPRPCTAPRP	-0.139
RRIRWRPPRLPRPRPRPYNTPRP	-0.162
RRIRKRPPRLPRPRPRPCQYPRP	-0.26
RRIRFRPPRLPRPRPRPAMMPRP	0.0488
RRIRCRPPRLPRPRPRPDYDPRP	0.0933
RRIRNRPPRLPRPRPRPEVWPRP	0.815
RRIRARPPRLPRPRPRPEKHPRP	0.0578
RRIRDRPPRLPRPRPRPQPYPRP	-0.651
RRIRYRPPRLPRPRPRPHPPPRP	0.374
RRIRIRPPRLPRPRPRPGHRPRP	0.0543
RRIRVRPPRLPRPRPRPDYWPRP	-0.449
RRIRHRPPRLPRPRPRPDATPRP	0.286
RRIRIRPPRLPRPRPRPSHYPRP	-0.528
RRIRQRPPRLPRPRPRPTASPRP	-0.0116
RRIRLRPPRLPRPRPRPTIFPRP	0.205
RRIRWRPPRLPRPRPRPCDQPRP	-0.0328
RRIRERPPRLPRPRPRPGCDPRP	0.0125
RRIRFRPPRLPRPRPRPGKHPRP	-0.294
RRIRYRPPRLPRPRPRPPFNPRP	-0.309
RRIRDRPPRLPRPRPRPKYYPRP	-0.193
RRIRCRPPRLPRPRPRPNMVPRP	0.0392
RRIRGRPPRLPRPRPRPHLGPRP	0.427
RRIRSRPPRLPRPRPRPSQEPRP	-0.26
RRIRDRPPRLPRPRPRPKYCPRP	-0.0392
RRIRCRPPRLPRPRPRPCGLPRP	0.0617

Sequence	shrunken log2 fold change
RRIRERPPRLPRPRPRPYINPRP	-0.248
RRIRQRPPRLPRPRPRPMKMPRP	0.0133
RRIRFRPPRLPRPRPRPKTPPRP	0.207
RRIRKRPPRLPRPRPRPNILPRP	-0.193
RRIRDRPPRLPRPRPRPLENPRP	0.035
RRIRARPPRLPRPRPRPYKDPRP	-0.348
RRIRFRPPRLPRPRPRPRFLPRP	-0.421
RRIRSRPPRLPRPRPRPDTGPRP	-0.00127
RRIRCRPPRLPRPRPRPMWAPRP	0.378
RRIRCRPPRLPRPRPRPWIEPRP	-0.123
RRIRNRPPRLPRPRPRPWDTPRP	-0.0124
RRIRVRPPRLPRPRPRPPIKPRP	-0.151
RRIRVRPPRLPRPRPRPSGSPRP	-0.0176
RRIRARPPRLPRPRPRPRTHPRP	0.259
RRIRMRPPRLPRPRPRPKKMPRP	0.249
RRIRERPPRLPRPRPRPSNYPRP	-1.12
RRIRMRPPRLPRPRPRPRFYPRP	0.322
RRIRLRPPRLPRPRPRPALKPRP	0.489
RRIRRRPPRLPRPRPRPSLFPRP	0.196
RRIRMRPPRLPRPRPRPPFMPRP	0.296
RRIRRRPPRLPRPRPRPIEWPRP	0.375
RRIRRRPPRLPRPRPRPRWHPRP	0.353
RRIRQRPPRLPRPRPRPPKEPRP	-0.168
RRIRFRPPRLPRPRPRPAPVPRP	0.323
RRIRLRPPRLPRPRPRPFYSPRP	-0.133

Sequence	shrunken log2 fold change
RRIRNRPPRLPRPRPRPICHPRP	-0.1
RRIRHRPPRLPRPRPRPNHYPRP	-0.939
RRIRWRPPRLPRPRPRPLHEPRP	0.148
RRIRNRPPRLPRPRPRPLFIPRP	-1.03
RRIRCRPPRLPRPRPRPSCWPRP	0.2
RRIRNRPPRLPRPRPRPTTEPRP	-0.257
RRIRSRPPRLPRPRPRPWSRPRP	-0.199
RRIRQRPPRLPRPRPRPNDFPRP	0.0233
RRIRCRPPRLPRPRPRPFQRPRP	-0.418
RRIRHRPPRLPRPRPRPNTFPRP	-0.00529
RRIRKRPPRLPRPRPRPFSRPRP	0.238
RRIRYRPPRLPRPRPRPDYYPRP	-0.00141
RRIRQRPPRLPRPRPRPIFVPRP	-0.217
RRIRKRPPRLPRPRPRPRFWPRP	1.42
RRIRYRPPRLPRPRPRPYPWPRP	0.0116
RRIRKRPPRLPRPRPRPNNIPRP	-0.477
RRIRMRPPRLPRPRPRPCHFPRP	-0.0459
RRIRRRPPRLPRPRPRPILRPRP	0.691
RRIRCRPPRLPRPRPRPGTVPRP	-0.339
RRIRERPPRLPRPRPRPQGAPRP	0.169
RRIRMRPPRLPRPRPRPFRTPRP	-0.21
RRIRMRPPRLPRPRPRPRPMPRP	0.935
RRIRMRPPRLPRPRPRPWSTPRP	-0.144
RRIRCRPPRLPRPRPRPKHGPRP	-0.116
RRIRWRPPRLPRPRPRPSERPRP	0.415

Sequence	shrunken log2 fold change
RRIRGRPPRLPRPRPRPYKTPRP	-0.0831
RRIRRRPPRLPRPRPRPQAEPRP	0.0907
RRIRSRPPRLPRPRPRPVMYPRP	-0.0786
RRIRNRPPRLPRPRPRPVYGPRP	-0.0867
RRIRKRPPRLPRPRPRPVMFPRP	0.124
RRIRRRPPRLPRPRPRPPHHPRP	1.09
RRIRRRPPRLPRPRPRPWPMPRP	-0.157
RRIRARPPRLPRPRPRPFITPRP	-0.543
RRIRYRPPRLPRPRPRPDICPRP	-0.0244
RRIRLRPPRLPRPRPRPDHNPRP	-0.00288
RRIRHRPPRLPRPRPRPQMDPRP	-0.106
RRIRMRPPRLPRPRPRPYSHPRP	-0.352
RRIRVRPPRLPRPRPRPRRSPRP	0.349
RRIRCRPPRLPRPRPRPAESPRP	0.0971
RRIRARPPRLPRPRPRPDYDPRP	0.0454
RRIRWRPPRLPRPRPRPHDIPRP	0.00165
RRIRERPPRLPRPRPRPEDKPRP	-0.034
RRIRLRPPRLPRPRPRPYDGPRP	0.0118
RRIRQRPPRLPRPRPRPHCGPRP	0.0588
RRIRRRPPRLPRPRPRPTYRPRP	0.309
RRIRIRPPRLPRPRPRPYAAPRP	-0.563
RRIRTRPPRLPRPRPRPNTPPRP	-0.17
RRIRSRPPRLPRPRPRPPRTPRP	0.619
RRIRDRPPRLPRPRPRPVQNPRP	0.577
RRIRVRPPRLPRPRPRPESAPRP	0.522

Source: the supplement of paper PMC9112550, “Optimization of the antimicrobial peptide Bac7 by deep mutational scanning” (BMC Biology, 2022)
